# From the nanobody polyreactivity screen of Harvey et al. (2022)
# Test: yeast display, Sf9 membrane polyspecificity reagent, FACS + sequencing; frameworks hold sequencing errors
# Procedure, shortened: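 Galactose induction of a Saccharomyces cerevisiae BJ5465 synthetic nanobody display library ran 36–48 hours. The cells were then stained for 1 hour at 4 °C with 10% biotinylated, detergent-solubilized Sf9 membrane reagent, pulled down on streptavidin microbeads and FACS-sorted into low and high (top ~1%) gates on expression and reagent-binding fluorescence. Labels for polyreactivity follow the gate of origin.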
sequence,measurement,value
QVQLVESGGGLVQAGGSLRLSCAASGITFRRYTMGWYRQAPGKEMELVAAISRIGGSTYYADSVKGRFTISRDNAKNTVYLQMNSLKPEDTAVYYCARAGRVQPGSEDDYWGQGTQVTVSS,polyreactivity (PSR sort gate),high polyreactivity
QVQLVESGGGLVQAGGSLRLSCAASGSIFGGYAMGWYRQAPVKERELVARIRVSGGRTYYSDSVKGRFTISRDNAKNTVYLQRNSLKPEDTAVYYCNALLAGRRVARGYDSWGQGTQVTVSS,polyreactivity (PSR sort gate),high polyreactivity
QVQLVESGGGLVQAGGSLRLSCAASGNTFPRYVMGWYRQAPGKERELVADITRRGGSTYYADSVKGRFTISRDNAKNTVYLQMNSLKPEDTAVYYCAALYLYGHQFYNDYYYWGQGTQVTVSS,polyreactivity (PSR sort gate),high polyreactivity
QVQLVESGGGLVQAGGSLRLSCAASGLTFTKYAMGWYRQAPGKERELVAAINRRGGSTYYADSVKGRFTISRDNAKNTVYLQMNSLKPEDTAVYYCAKRKSVRSTPSYEYWGQGTQVTVSS,polyreactivity (PSR sort gate),high polyreactivity
QVQLVESGGGLVQAGVRLRLSCPASGFIFDWYTMGWYRQAPGKERELVAAITIGGSTDYADSVKGRFTISRDNAKNTVYLQMNSLKPEDTAVYYCNALWYLSGTWYDYWGQGTQVTVSS,polyreactivity (PSR sort gate),low polyreactivity
QVQLVESGGGLVQAGGSLRLSCAASGFIFGGYAMGWYRQAPGKEREFVAAIRQRGGSTYYADSVKGRFTISRDNAKNTVYLQMNSLKPEDTAVYYCAATVRAVQASVRYGYWGQGTQVTVSS,polyreactivity (PSR sort gate),high polyreactivity
QVQLVESGGGLVQAGGSLRLSCAASGIIFRAYAMGWYRPAPGKERELVAAISWSGGSTYYADSVKGRFTISRDNAKNTVYLQMNSLKPEDTAVYYCAAESLVYDFDYWGQGTQVTVSS,polyreactivity (PSR sort gate),high polyreactivity
QVQLVESGGGLVQAGGSLRLSCAAYGITFPSYTMGWYRQAPGKERELVATIRNGGSTYYADSVKGRFTISRDNAKNTVYLQMNSLKPEDTAVYYCAAKDTGYGYGVPRLDYWGQGTQVTVSS,polyreactivity (PSR sort gate),low polyreactivity
QVQLVESGGGLVQAGGSLRLSCAASGITFGYYAMGWYRQAPGKERELVAAITYSGGSTYYADSVKGRFTISRDNAKNTVYLQMNSLKPEDTAVYYCNADWWAYYSFGHEYWGQGTQVTVSS,polyreactivity (PSR sort gate),low polyreactivity
QVQIVESGGGLVQAGGSLRLSCAASGSIFSRYTMGWYRQAPGKERELVARINSSGTSTYYADSVKGRFTISRDNEKNSVYFQMNSLKPEDTAVYYCDRTSRHVRYDYWGQGTQVTVSS,polyreactivity (PSR sort gate),low polyreactivity
QVQLVESGGGLVQAGGSLRLSCAASGLIFSGYDMGWYRQAPGKERELVAAITWSGGRTYADSVKGRFTISRDNAKNTVYLQMNSLKPEDTAVYYCNADAYIDYWPYTWDYDYWGQGTQVTVSS,polyreactivity (PSR sort gate),high polyreactivity
QVQLVESGGGLVQAGGSLRLSCAASGRIFYLYAMGWYRQAPGKERELVASINSGDSTHYADSVKGRFTISRDNAKNTVYLQMNSLKPEDTAVYYCATRRYTRSRWYDYWGQGTQVTVSS,polyreactivity (PSR sort gate),low polyreactivity
QVQLVESGGGLVQAGGSLRLSCAASGRTFRYNTMGWYRQAPGKERELVARITRSGGSTYYADSVKGRFTISRDNAKNTVYLQMNSLKPEDTAVYYCAAVPILVYRWFQSYTGDYDYWGQGTQVTVSS,polyreactivity (PSR sort gate),low polyreactivity
QVQLVESGGGLVQAGGSLRLSCDASGSIFYPYAMGWYRQAPGKERELVASISWSGGSTRYADSVKGRFTISRDHAKNTVYLQMNSLKPEDTAVYYCAARYILSKYGSGVRYYYWGQGTQVTVSS,polyreactivity (PSR sort gate),high polyreactivity
QVQLVESGGGLVQAGGSLRLSCAASGRIFADNAMGWYRQAPGKERELVADITYSGGSTYYADSVKGRFTISRDNAKNTVYLQMNSLNPEDTAVYYCAKQGVDYWGQGTQVTVSS,polyreactivity (PSR sort gate),low polyreactivity
QVQLVESGGGLVQAGGSLRLSCAASGIIFRYNAMGWYRQAPGKARELVAALSFRGGSTRYADSVKGRCTISRDTATNTVYLQMNSLKPEDTAVYYCNAQRRTYIYDYWGQGTQVTVSS,polyreactivity (PSR sort gate),high polyreactivity
QVQLVESGGGLVQAGGSLRLSCAASGRIFGGYAMGWYRQAPGKERELVAAISSSGGRTYYADSVKGRFTISRDNAKNTVYLQMKSLKPEDTAVYYCNAGAGQRVSGHSFEYWGQGTQVTVSS,polyreactivity (PSR sort gate),high polyreactivity
QVQLVESGGGLVQAGGSLRLSCAASGSIFTEDAMGWYRQAPGKERELVAAISWSGATTYYADSVKGRFTISRDKAKNPVDLQMNSLKPEDTAVYYCAARWANRSYEYWGQGTQVTVSS,polyreactivity (PSR sort gate),low polyreactivity
QVQIVESGGGLVQARCSLRLSFSASGYTFNNYAKGWYRQAPGTERELVAAISSSGGSTYFADSVKGRFTISRDNAKNTVYVQMNSLKPEDTAVYYCAARPFGLGDYRGYYYWGQGTQVTVSS,polyreactivity (PSR sort gate),low polyreactivity
QVQLVESGGGLVQAGGILRLSSDTSRSIFSTNGMGWYRPAHGKERELVAAMSTGGRKYYADSVKVRFTISRDNAKNTVYLQMNSLIPEDSAVFYCAIDHWTTSYDEGYYWGQGTQVTVSW,polyreactivity (PSR sort gate),low polyreactivity
QVQLVESGGGLVQAGGSLRLSCAASGYTFGYYALGRYRPAPGKERELVAAISSGGITKYADSVKGRFTISRENAKNTVYLQMNSLKPEDTAVYYCAASWYRYRFIRYDYWGQGTQVTVSS,polyreactivity (PSR sort gate),high polyreactivity
QVQLVESGGGLVQAGGSLRLSCAASGRTFTGNAMGWYRQAPGKVRELVADINLSGGDTYYADSVKGRFTISRDNAKNTVYLQMNSLKPEDTAVYYCAADIVYSSDYGPGDYWGQGTQVTVSS,polyreactivity (PSR sort gate),high polyreactivity
